Experimental data published in patent US20170015742A1 (published 2017).
Positions count from the first letter of the chain named. Blank lines part the entries; values can stand above or below the binder they belong to.

Biological target: recombinant human PDGF-BB (human, UniProt P01127 82-190)
Assay: cell-based or functional assay

Chain of recombinant human PDGF-BB (P01127 82-190 limits assumed): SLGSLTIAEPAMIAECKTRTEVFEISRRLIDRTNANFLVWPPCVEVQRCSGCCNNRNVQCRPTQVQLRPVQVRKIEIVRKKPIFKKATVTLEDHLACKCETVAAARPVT

B1: CODV018 cross-over DVD-Ig (PR-1571831) (bispecific antibody, human IgG1, kappa, L234A L235A)
heavy: EFVLTQSPGTLSLSPGERATLSCERSSGDIGDSYVSWYQQKPGQAPRLVIYADDQRPSGIPDRFSGSGSGTDFTLTISRLEPEDFAVYYCQSYDINIDIVFGGGTKVEIKGGGSGGGDTVLTQSPATLSLSPGERATLSCRASESVSTHMHWYQQKPGQAPRLLIYGASNLESGVPARFSGSGSGTDFTLTISSLEPEDFAVYFCQQSWNDPFTFGQGTKLEIKGGGSGASTKGPSVFPLAPSSKSTSGGTAALGCLVKDYFPEPVTVSWNSGALTSGVHTFPAVLQSSGLYSLSSVVTVPSSSLGTQTYICNVNHKPSNTKVDKKVEPKSCDKTHTCPPCPAPEAAGGPSVFLFPPKPKDTLMISRTPEVTCVVVDVSHEDPEVKFNWYVDGVEVHNAKTKPREEQYNSTYRVVSVLTVLHQDWLNGKEYKCKVSNKALPAPIEKTISKAKGQPREPQVYTLPPSREEMTKNQVSLTCLVKGFYPSDIAVEWESNGQPENNYKTTPPVLDSDGSFFLYSKLTVDKSRWQQGNVFSCSVMHEALHNAYTQKSLSLSPGK
light: EVQLVQSGSELKKPGASVKVSCKASGYTFTNYGMYWVRQAPGQGLEWMGWINTETGKPTYADDFKGRFVFSLDTSVSTAYLQISSLKAEDTAVYYCARTNYYYRSYIFYFDYWGQGTMVTVSSGEVTLRESGPALVKPTQTLTLTCTFSGFSLSTYGMGVGWIRQPPGKALEWLANIWWDDDKYYNPSLKNRLTISKDTSKNQVVLTMTNMDPVDTATYYCARIESIGTTYSFDYWGQGTMVTVSSGGRTVAAPSVFIFPPSDEQLKSGTASVVCLLNNFYPREAKVQWKVDNALQSGNSQESVTEQDSKDSTYSLSSTLTLSKADYEKHKVYACEVTHQGLSSPVTKSFNRGEC
NIH-3T3 hPDGF-BB Potency IC50: > 5000 pM

B2: CODV012 cross-over DVD-Ig (PR-1571824) (bispecific antibody, human IgG1, kappa, L234A L235A)
heavy: EVQLVQSGSELKKPGASVKVSCKASGYTFTNYGMYWVRQAPGQGLEWMGWINTETGKPTYADDFKGRFVFSLDTSVSTAYLQISSLKAEDTAVYYCARTNYYYRSYIFYFDYWGQGTMVTVSSGGGGSGGGEFVLTQSPGTLSLSPGERATLSCERSSGDIGDSYVSWYQQKPGQAPRLVIYADDQRPSGIPDRFSGSGSGTDFTLTISRLEPEDFAVYYCQSYDINIDIVFGGGTKVEIKGGGSGASTKGPSVFPLAPSSKSTSGGTAALGCLVKDYFPEPVTVSWNSGALTSGVHTFPAVLQSSGLYSLSSVVTVPSSSLGTQTYICNVNHKPSNTKVDKKVEPKSCDKTHTCPPCPAPEAAGGPSVFLFPPKPKDTLMISRTPEVTCVVVDVSHEDPEVKFNWYVDGVEVHNAKTKPREEQYNSTYRVVSVLTVLHQDWLNGKEYKCKVSNKALPAPIEKTISKAKGQPREPQVYTLPPSREEMTKNQVSLTCLVKGFYPSDIAVEWESNGQPENNYKTTPPVLDSDGSFFLYSKLTVDKSRWQQGNVFSCSVMHEALHNAYTQKSLSLSPGK
light: EVTLRESGPALVKPTQTLTLTCTFSGFSLSTYGMGVGWIRQPPGKALEWLANIWWDDDKYYNPSLKNRLTISKDTSKNQVVLTMTNMDPVDTATYYCARIESIGTTYSFDYWGQGTMVTVSSGGGGSGGGDTVLTQSPATLSLSPGERATLSCRASESVSTHMHWYQQKPGQAPRLLIYGASNLESGVPARFSGSGSGTDFTLTISSLEPEDFAVYFCQQSWNDPFTFGQGTKLEIKGGGSGRTVAAPSVFIFPPSDEQLKSGTASVVCLLNNFYPREAKVQWKVDNALQSGNSQESVTEQDSKDSTYSLSSTLTLSKADYEKHKVYACEVTHQGLSSPVTKSFNRGEC
NIH-3T3 hPDGF-BB Potency IC50: 182 pM

B3: CODV014 cross-over DVD-Ig (PR-1571826) (bispecific antibody, human IgG1, kappa, L234A L235A)
heavy: EVQLVQSGSELKKPGASVKVSCKASGYTFTNYGMYWVRQAPGQGLEWMGWINTETGKPTYADDFKGRFVFSLDTSVSTAYLQISSLKAEDTAVYYCARTNYYYRSYIFYFDYWGQGTMVTVSSGGGGSEFVLTQSPGTLSLSPGERATLSCERSSGDIGDSYVSWYQQKPGQAPRLVIYADDQRPSGIPDRFSGSGSGTDFTLTISRLEPEDFAVYYCQSYDINIDIVFGGGTKVEIKGGSASTKGPSVFPLAPSSKSTSGGTAALGCLVKDYFPEPVTVSWNSGALTSGVHTFPAVLQSSGLYSLSSVVTVPSSSLGTQTYICNVNHKPSNTKVDKKVEPKSCDKTHTCPPCPAPEAAGGPSVFLFPPKPKDTLMISRTPEVTCVVVDVSHEDPEVKFNWYVDGVEVHNAKTKPREEQYNSTYRVVSVLTVLHQDWLNGKEYKCKVSNKALPAPIEKTISKAKGQPREPQVYTLPPSREEMTKNQVSLTCLVKGFYPSDIAVEWESNGQPENNYKTTPPVLDSDGSFFLYSKLTVDKSRWQQGNVFSCSVMHEALHNAYTQKSLSLSPGK
light: B2 light
NIH-3T3 hPDGF-BB Potency IC50: 469 pM

B5: CODV013 cross-over DVD-Ig (PR-1571825) (bispecific antibody, human IgG1, kappa, L234A L235A)
heavy: EVQLVQSGSELKKPGASVKVSCKASGYTFTNYGMYWVRQAPGQGLEWMGWINTETGKPTYADDFKGRFVFSLDTSVSTAYLQISSLKAEDTAVYYCARTNYYYRSYIFYFDYWGQGTMVTVSSGGGGSGGGEFVLTQSPGTLSLSPGERATLSCERSSGDIGDSYVSWYQQKPGQAPRLVIYADDQRPSGIPDRFSGSGSGTDFTLTISRLEPEDFAVYYCQSYDINIDIVFGGGTKVEIKGGSASTKGPSVFPLAPSSKSTSGGTAALGCLVKDYFPEPVTVSWNSGALTSGVHTFPAVLQSSGLYSLSSVVTVPSSSLGTQTYICNVNHKPSNTKVDKKVEPKSCDKTHTCPPCPAPEAAGGPSVFLFPPKPKDTLMISRTPEVTCVVVDVSHEDPEVKFNWYVDGVEVHNAKTKPREEQYNSTYRVVSVLTVLHQDWLNGKEYKCKVSNKALPAPIEKTISKAKGQPREPQVYTLPPSREEMTKNQVSLTCLVKGFYPSDIAVEWESNGQPENNYKTTPPVLDSDGSFFLYSKLTVDKSRWQQGNVFSCSVMHEALHNAYTQKSLSLSPGK
light: B2 light
NIH-3T3 hPDGF-BB Potency IC50: 110 pM

B7: CODV017 cross-over DVD-Ig (PR-1571830) (bispecific antibody, human IgG1, kappa, L234A L235A)
heavy: DTVLTQSPATLSLSPGERATLSCRASESVSTHMHWYQQKPGQAPRLLIYGASNLESGVPARFSGSGSGTDFTLTISSLEPEDFAVYFCQQSWNDPFTFGQGTKLEIKGGGSGGGEFVLTQSPGTLSLSPGERATLSCERSSGDIGDSYVSWYQQKPGQAPRLVIYADDQRPSGIPDRFSGSGSGTDFTLTISRLEPEDFAVYYCQSYDINIDIVFGGGTKVEIKGGGSGASTKGPSVFPLAPSSKSTSGGTAALGCLVKDYFPEPVTVSWNSGALTSGVHTFPAVLQSSGLYSLSSVVTVPSSSLGTQTYICNVNHKPSNTKVDKKVEPKSCDKTHTCPPCPAPEAAGGPSVFLFPPKPKDTLMISRTPEVTCVVVDVSHEDPEVKFNWYVDGVEVHNAKTKPREEQYNSTYRVVSVLTVLHQDWLNGKEYKCKVSNKALPAPIEKTISKAKGQPREPQVYTLPPSREEMTKNQVSLTCLVKGFYPSDIAVEWESNGQPENNYKTTPPVLDSDGSFFLYSKLTVDKSRWQQGNVFSCSVMHEALHNAYTQKSLSLSPGK
light: EVTLRESGPALVKPTQTLTLTCTFSGFSLSTYGMGVGWIRQPPGKALEWLANIWWDDDKYYNPSLKNRLTISKDTSKNQVVLTMTNMDPVDTATYYCARIESIGTTYSFDYWGQGTMVTVSSGEVQLVQSGSELKKPGASVKVSCKASGYTFTNYGMYWVRQAPGQGLEWMGWINTETGKPTYADDFKGRFVFSLDTSVSTAYLQISSLKAEDTAVYYCARTNYYYRSYIFYFDYWGQGTMVTVSSGGRTVAAPSVFIFPPSDEQLKSGTASVVCLLNNFYPREAKVQWKVDNALQSGNSQESVTEQDSKDSTYSLSSTLTLSKADYEKHKVYACEVTHQGLSSPVTKSFNRGEC
NIH-3T3 hPDGF-BB Potency IC50: > 5000 pM

Now from value to binder:

NIH-3T3 hPDGF-BB Potency IC50: 59 pM
B4: CODV022 cross-over DVD-Ig (PR-1577056) (bispecific antibody, human IgG1, kappa, L234A L235A)
heavy: B2 heavy with D163E
light: EVTLRESGPALVKPTQTLTLTCTFSGFSLSTYGMGVGWIRQPPGKALEWLANIWWDDDKYYNPSLKNRLTISKDTSKNQVVLTMTNMDPVDTATYYCARIESIGTTYSFDYWGQGTMVTVSSGGGGSDTVLTQSPATLSLSPGERATLSCRASESVSTHMHWYQQKPGQAPRLLIYGASNLESGVPARFSGSGSGTDFTLTISSLEPEDFAVYFCQQSWNDPFTFGQGTKLEIKGGSRTVAAPSVFIFPPSDEQLKSGTASVVCLLNNFYPREAKVQWKVDNALQSGNSQESVTEQDSKDSTYSLSSTLTLSKADYEKHKVYACEVTHQGLSSPVTKSFNRGEC

NIH-3T3 hPDGF-BB Potency IC50: 56 pM
B6: CODV021 cross-over DVD-Ig (PR-1577053) (bispecific antibody, human IgG1, kappa, L234A L235A)
heavy: B2 heavy with D163E
light: EVTLRESGPALVKPTQTLTLTCTFSGFSLSTYGMGVGWIRQPPGKALEWLANIWWDDDKYYNPSLKNRLTISKDTSKNQVVLTMTNMDPVDTATYYCARIESIGTTYSFDYWGQGTMVTVSSGGGGSGGGDTVLTQSPATLSLSPGERATLSCRASESVSTHMHWYQQKPGQAPRLLIYGASNLESGVPARFSGSGSGTDFTLTISSLEPEDFAVYFCQQSWNDPFTFGQGTKLEIKGGSRTVAAPSVFIFPPSDEQLKSGTASVVCLLNNFYPREAKVQWKVDNALQSGNSQESVTEQDSKDSTYSLSSTLTLSKADYEKHKVYACEVTHQGLSSPVTKSFNRGEC

NIH-3T3 hPDGF-BB Potency IC50: > 5000 pM
B8: DVD3906 DVD-Ig (PR-1565035) (bispecific antibody, human IgG1, kappa, L234A L235A)
heavy: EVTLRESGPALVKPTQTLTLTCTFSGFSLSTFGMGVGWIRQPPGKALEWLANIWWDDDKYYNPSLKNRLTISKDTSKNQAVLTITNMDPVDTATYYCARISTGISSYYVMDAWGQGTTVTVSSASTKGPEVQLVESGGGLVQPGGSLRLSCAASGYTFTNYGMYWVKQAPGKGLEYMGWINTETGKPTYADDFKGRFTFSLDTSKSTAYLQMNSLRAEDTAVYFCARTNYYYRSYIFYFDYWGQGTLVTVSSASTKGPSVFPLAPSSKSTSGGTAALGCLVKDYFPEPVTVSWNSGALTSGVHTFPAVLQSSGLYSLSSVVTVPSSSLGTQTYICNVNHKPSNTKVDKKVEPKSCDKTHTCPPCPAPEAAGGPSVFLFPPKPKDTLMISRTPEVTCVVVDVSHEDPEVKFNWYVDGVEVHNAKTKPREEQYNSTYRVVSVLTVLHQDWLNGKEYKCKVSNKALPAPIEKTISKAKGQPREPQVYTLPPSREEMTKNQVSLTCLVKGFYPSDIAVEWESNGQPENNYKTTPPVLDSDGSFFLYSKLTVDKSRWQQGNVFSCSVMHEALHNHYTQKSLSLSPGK
light: DFQLTQSPSSLSASVGDRVTITCERSSGDIGDTYVSWYQQKPGKAPKNVIYGNDQRPSGVPSRFSGSGSGNSATLTISSLQPEDFATYFCQSYDSDIDIVFGQGTKVEIKGTVAAPSVFIFPPDTQLTQSPSSLSASVGDRVTISCRASESVSTHMHWYQQKPGKAPKLLIYGASNLESGVPSRFSGSGSGTDFTLTISSLQPEDFATYFCQQSWNDPFTFGQGTKVEIKRTVAAPSVFIFPPSDEQLKSGTASVVCLLNNFYPREAKVQWKVDNALQSGNSQESVTEQDSKDSTYSLSSTLTLSKADYEKHKVYACEVTHQGLSSPVTKSFNRGEC

NIH-3T3 hPDGF-BB Potency IC50: > 5000 pM
B9: DVD3904 DVD-Ig (PR-1565031) (bispecific antibody, human IgG1, kappa, L234A L235A)
heavy: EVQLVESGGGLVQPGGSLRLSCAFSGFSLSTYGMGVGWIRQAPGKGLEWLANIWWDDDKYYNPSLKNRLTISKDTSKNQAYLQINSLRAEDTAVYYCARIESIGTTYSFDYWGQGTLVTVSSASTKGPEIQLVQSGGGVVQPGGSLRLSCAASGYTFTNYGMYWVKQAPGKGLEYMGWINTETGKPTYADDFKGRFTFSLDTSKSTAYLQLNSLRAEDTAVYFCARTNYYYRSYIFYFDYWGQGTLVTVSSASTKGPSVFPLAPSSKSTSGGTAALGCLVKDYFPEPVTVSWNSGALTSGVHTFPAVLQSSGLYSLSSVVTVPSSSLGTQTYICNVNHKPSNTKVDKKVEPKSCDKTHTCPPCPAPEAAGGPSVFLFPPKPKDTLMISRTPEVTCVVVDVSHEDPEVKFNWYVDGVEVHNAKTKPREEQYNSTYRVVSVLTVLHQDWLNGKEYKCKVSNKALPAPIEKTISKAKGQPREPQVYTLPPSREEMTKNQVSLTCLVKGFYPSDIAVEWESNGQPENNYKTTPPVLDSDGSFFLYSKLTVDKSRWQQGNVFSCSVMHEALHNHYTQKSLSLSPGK
light: DFQLTQSPSSLSASVGDRVTITCERSSGDIGDSYVSWYQQKPGKAPKNVIYADDQRPSGVPSRFSGSGSGNSASLTISSLQPEDFATYFCQSYDINIDIVFGQGTKVEIKGTVAAPSVFIFPPDTVLTQSPSTLSASPGERATISCRASESVSTHMHWYQQKPGQAPKLLIYGASNLESGVPSRFSGSRSGTDFTLTISSLQPEDFAVYFCQQSWNDPFTFGQGTKVEIKRTVAAPSVFIFPPSDEQLKSGTASVVCLLNNFYPREAKVQWKVDNALQSGNSQESVTEQDSKDSTYSLSSTLTLSKADYEKHKVYACEVTHQGLSSPVTKSFNRGEC

NIH-3T3 hPDGF-BB Potency IC50: > 5000 pM
B10: DVD3905 DVD-Ig (PR-1565032) (bispecific antibody, human IgG1, kappa, L234A L235A)
heavy: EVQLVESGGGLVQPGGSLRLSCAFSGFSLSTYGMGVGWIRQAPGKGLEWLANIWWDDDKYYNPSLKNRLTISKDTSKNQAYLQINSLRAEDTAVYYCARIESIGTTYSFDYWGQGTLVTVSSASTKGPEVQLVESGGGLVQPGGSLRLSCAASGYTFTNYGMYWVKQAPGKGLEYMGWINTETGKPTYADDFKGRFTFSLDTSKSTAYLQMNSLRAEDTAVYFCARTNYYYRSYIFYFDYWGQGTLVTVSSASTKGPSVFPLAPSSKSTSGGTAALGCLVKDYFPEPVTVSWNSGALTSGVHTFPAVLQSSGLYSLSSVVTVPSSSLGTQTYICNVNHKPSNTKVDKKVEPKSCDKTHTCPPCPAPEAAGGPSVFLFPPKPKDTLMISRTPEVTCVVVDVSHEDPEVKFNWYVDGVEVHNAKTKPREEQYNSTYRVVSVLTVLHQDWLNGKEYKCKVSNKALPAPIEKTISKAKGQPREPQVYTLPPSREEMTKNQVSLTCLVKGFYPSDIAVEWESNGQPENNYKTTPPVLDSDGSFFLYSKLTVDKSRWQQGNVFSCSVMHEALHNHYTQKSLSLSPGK
light: B8 light with T33S, G52A, N53D, T74S, S95I, D96N
